Assay results published in patent US20080216185.

Test system: phiC31 integrase (Streptomyces phage phiC31?)
Test: cell_activity
Conditions: for activity: integration of attB plasmid

Row | Substance | activity (BG01v) | other results
1 | pseudo attP 17q23.3 (TLK2/MRC2 intergenic) | 4 clones | 
2 | pseudo attP 9q31.2 |  | activity (BG01v and SA002): 3 clones
3 | pseudo attP 2q35 | 2 clones | 
4 | pseudo attP 21q21.1 | 2 clones | 
5 | pseudo attP 13q32.3 (CLYBL intron 2) |  | activity (of 51 integrase-mediated clones, BG01v and SA002): 17 clones
6 | pseudo attP 6p11.2 (PRIM2A intron 5) | 5 clones | 
7 | phiC31 attB (pB2H1-DEST derived plasmids) |  | activity (fold colonies over random integration) (114 vs 80 colonies with/without integrase, BG01v hESC): 1.4
